According to article PMC6856716:
Read-outs that look alike come from different tables or passages of the source.

Columns and labels:
[1] = target: Actin (rabbit skeletal muscle alpha actin), polymerized (F-actin) (rabbit) (UniProt P68135); experiment: co-sedimentation
[2] = target: Actin (rabbit skeletal muscle alpha actin), polymerized (F-actin) (rabbit) (UniProt P68135); experiment: co-sedimentation; remark: listed apart in the source

Row | co-sedimented talin fragment relative to talin-FL (relative to talin-FL) [1] | co-sedimented talin fragment relative to talin-FL (relative to talin-FL) [2] | Substance
1 | 1.1 | 1.3 | talin N-R11 (C-terminal truncation lacking R12 and the C-terminus), P26039 1-2141
2 | – | 0.68 | talin N-R12 (C-terminal truncation), P26039 1-2294
3 | 1.3 | 1.1 | talin R1-C (truncation lacking the FERM domain), P26039 482-2541
